These results are taken from US20030134774A1, “Methods for inhibiting cardiac disorders” (priority 2001, published 2003).

This assay relates to cardiomyocytes. Nature of the assay: Protein synthesis ([3H]phenylalanine incorporation) in cardiomyocytes. It is filed as cell-based, rat. The settings on record: rPMT 400 ng/ml or NE 10 μM, 48 hr, serum-free. Here is the method: rPMT mimics the effect of norepinephrine to promote cardiomyocyte hypertrophy. Cardiomyocytes were cultured in serum-free medium without or with rPMT (400 ng/ml) or norepinephrine (NE, 10 μM) for 48 hr. Cardiomyocytes were fixed, permeabilized, and stained with monoclonal anti-α-actinin sarcomeric (Panel A, magnification×100) or subjected to Northern blot analysis for measurements of steady-state ANF mRNA expression (Panel B). Effects of rPMT (black bars) and NE (gray bars) vs. vehicle (white bars) on sarcomeric organization (Panel C), cell size (Panel D), and protein synthesis (Panel E) are illustrated (n=3 for each).
As a second index of cardiomyocyte growth, relative rates of protein synthesis were measured as radiolabeled phenylalanine incorporation into cell protein. Cells were stimulated in serum-free medium with agonists (or vehicle as control) for 48 hr at 37° C. The medium was replaced with serum-free medium containing [^3H]phenylalanine (0.1 μCi/ml) and non-radioactive phenylalanine (0.3 mM, to minimize variations in the specific activity of the precursor pool responsible for protein synthesis) during the final 24 hr of stimulation. Cells were rinsed with PBS and incubated in 10% trichloroacetic acid for 30 min on ice. […] Aliquots of the SDS-soluble protein were counted in 5 ml of scintillant.

B1: rPMT: recombinant Pasteurella multocida toxin, a Gαq agonist used as pharmacological probe (protein, UniProt P17452 1-1285, looked up)
Dermonecrotic toxin: MKTKHFFNSDFTVKGKSADEIFRRLCTDHPDKQLNNVKWKEVFINRFGQMMLDTPNPRKIVEKIINEGLEKQGLKNIDPETTYFNIFSSSDSSDGNVFHYNSLSESYRVTDACLMNIFVERYFDDWDLLNSLASNGIYSVGKEGAYYPDHDYGPEYNPVWGPNEQIYHSRVIADILYARSVWDEFKKYFMEYWQKYAQLYTEMLSDTFLAMAIQQYTRQTLTDEGFLMVCNTYYGNKEEVQITLLDIYGYPSTDIICIEQKGLPTPKVILYIPGGTQPFVEFLNTDDLKQWIAWHLKDNKHMVAFRKHFSLKQRQEGETFTGIDKALQYIAEESPEWPANKYILYNPTHLETENLFNIMMKRTEQRMLEDSDVQIRSNSEATRDYALSLLETFISQLSAIDMLVPAVGIPINFALSATALGLSSDIVVNGDSYEKRKYGIGSLVQSALFTGINLIPVISETAEILSSFSRTEEDIPAFFTEEQALAQRFEIVEEELHSISPDDPPREITDENLHKIRLVRLNNENQPLVVLRRLGGNKFIRIEPITFQEIKGSLVSEVINPVTNKTYYVSNAKLLGGSPYSPFRIGLEGVWTPEVLKARASVIGKPIGESYKRILAKLQRIHNSNILDERQGLMHELMELIDLYEESQPSSERLNAFRELRTQLEKALYLPEMEALKKQILQIPNKGSGAARFLLRTAMNEMAGKTSESTADLIRFALQDTVISAPFRGYAGAIPEAIDFPVKYVIEDISVFDKIQTNYWELPAYESWNEGSNSALLPGLLRESQSKGMLSKCRIIENSLYIGHSYEEMFYSISPYSNQVGGPYELYPFTFFSMLQEVQGDLGFEQAFATRNFFNTLVSDRLSLMENTMLLTESFDYTPWDAIYGDINYDEQFAAMSINERIEKCMNTYRGVAFQNSSKSIDFFLNNLTTFIDNGLTEIAISDLPYDIVQQEISQFLQGSNEWKTLDAMLFNLDKGDINGAFRKLLQSAKDNNIKFRAIGHSDNSVPPFNNPYKSLYYKGNIIAEAIEKLDREGQKFVVFADSSLLNSTPGTGRPMPGLVQYLKIPATVVDSDGAWQFLPDVASSRVPIEVTELENWQVLTPPQGKILGLKQFKLTAGFPTEQSRLPLLENSVSEDLREELMQKIDAIKNDVKMNSLVCMEAGSCDSVSPKVAARLKDMGLEAGMGASITWWRREGGMEFSHQMHTTASFKFAGKEFAVDASHLQFVHDQLDTTILILPVDDWALEIAQRNRAINPFVEYVSKTGNMLALFMPPLFTKPRLTRAL
In the case of B1, the “[3H]phenylalanine incorporation (protein synthesis)” value is “enhance [^3H]phenylalanine incorporation”.
